The record followed here is publication doi:10.1101/2020.12.10.418392.

The assay addresses T1, RLP42-GFP (A. thaliana) (UniProt Q9LJS0).
T1 sequence: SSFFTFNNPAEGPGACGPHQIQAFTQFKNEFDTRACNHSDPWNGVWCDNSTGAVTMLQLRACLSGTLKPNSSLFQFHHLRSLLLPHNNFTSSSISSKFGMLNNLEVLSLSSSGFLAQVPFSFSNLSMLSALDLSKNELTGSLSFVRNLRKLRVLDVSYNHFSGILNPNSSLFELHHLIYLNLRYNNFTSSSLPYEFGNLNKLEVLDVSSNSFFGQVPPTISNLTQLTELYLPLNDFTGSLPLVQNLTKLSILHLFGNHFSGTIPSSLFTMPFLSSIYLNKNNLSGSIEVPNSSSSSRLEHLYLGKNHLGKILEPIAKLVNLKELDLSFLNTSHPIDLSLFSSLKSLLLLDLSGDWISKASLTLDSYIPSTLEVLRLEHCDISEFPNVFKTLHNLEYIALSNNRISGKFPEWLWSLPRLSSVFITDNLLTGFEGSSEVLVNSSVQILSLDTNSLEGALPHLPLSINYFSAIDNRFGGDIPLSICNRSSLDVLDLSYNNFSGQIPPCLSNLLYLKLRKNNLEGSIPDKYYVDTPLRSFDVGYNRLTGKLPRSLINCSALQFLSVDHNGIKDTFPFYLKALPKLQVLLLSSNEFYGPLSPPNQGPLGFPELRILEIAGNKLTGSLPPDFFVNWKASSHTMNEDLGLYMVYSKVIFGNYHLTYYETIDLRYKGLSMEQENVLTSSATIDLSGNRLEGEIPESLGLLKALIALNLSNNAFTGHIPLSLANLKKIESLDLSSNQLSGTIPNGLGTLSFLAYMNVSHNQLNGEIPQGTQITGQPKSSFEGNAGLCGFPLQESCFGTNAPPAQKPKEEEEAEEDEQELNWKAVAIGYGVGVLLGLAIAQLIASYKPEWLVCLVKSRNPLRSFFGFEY

Consider AKNTDGFDL [Oom-pg9], for which the EC50 of ethylene production in A. thaliana Col-0 leaves stood at 1300 nM.
